Substitutions are numbered along the chain they refer to. One block for each binder: values may come before it.
What was measured:
Assay in all cases: cell-based or functional assay
human GPRC5D [1] = target: T1, human GPRC5D (human, UniProt Q9NZD1 1-345)
human GPRC5D [2] = target: T1, human GPRC5D; remark: listed apart in the source
human GPRC5D [3] = target: T1, human GPRC5D; remark: listed apart in the source

T1 sequence (Q9NZD1 whole entry): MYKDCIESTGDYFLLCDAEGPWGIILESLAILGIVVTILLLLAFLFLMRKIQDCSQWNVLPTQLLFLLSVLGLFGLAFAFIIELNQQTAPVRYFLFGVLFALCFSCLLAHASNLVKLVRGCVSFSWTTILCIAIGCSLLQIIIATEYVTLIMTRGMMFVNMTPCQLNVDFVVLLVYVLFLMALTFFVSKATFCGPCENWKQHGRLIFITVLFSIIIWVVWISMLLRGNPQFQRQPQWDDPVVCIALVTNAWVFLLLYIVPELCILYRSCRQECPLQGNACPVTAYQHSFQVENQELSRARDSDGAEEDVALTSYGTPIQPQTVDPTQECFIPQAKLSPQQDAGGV

B1: P1AE5707 (antibody, V domains shown)
VH: EVQLLESGGGLVQPGGSLRLSCAASGFTFSKYAMAWVRQAPGKGLEWVASISTGGVNTYYRDSVKARFTISRDNSKNTLYLQMNSLRAEDTAVYYCATHTGDYFDYWGQGTMVTVSS
VL: DIVMTQSPDSLAVSLGERATINCRASQSVSISGINLMNWYQQKPGQQPKLLIYHASILASGVPDRFSGSGSGTDFTLTISSLQAEDVAVYYCQQTRESPLTFGQGTRLEIK
CAR-J2 EC50 (PGLALA-CAR-J activation, L363 target cells) (human GPRC5D [1]): 42.4 ng/mL

B4: P1AE5712 (antibody, V domains shown)
VH: B1 VH
VL: DIQMTQSPSSLSASVGDRVTITCRASQSVSISGINLMNWYQQKPGKQPKLLIYHASILASGVPSRFSGSGSGTDFTLTISSLQPEDFATYYCQQTRESPLTFGQGTRLEIK
CAR-J2 EC50 (PGLALA-CAR-J activation, L363 target cells) (human GPRC5D [1]): 16.1 ng/mL

B5: P1AE5724 (antibody, V domains shown)
VH: B1 VH with R61A, A66G
VL: B4 VL
CAR-J2 EC50 (PGLALA-CAR-J activation, L363 target cells) (human GPRC5D [1]): 3.6 ng/mL

B6: P1AE5731 (antibody, V domains shown)
VH: B1 VH with V2L, R61A, A66G, S75A
VL: B4 VL with K46Q
CAR-J2 EC50 (PGLALA-CAR-J activation, L363 target cells) (human GPRC5D [1]): 2.3 ng/mL

B7: P1AE5709 (antibody, V domains shown)
VH: B1 VH
VL: EIVLTQSPGTLSLSPGERATLSCRASQSVSISGINLMNWYQQKPGQQPRLLIYHASILASGIPDRFSGSGSGTDFTLTISRLEPEDFAVYYCQQTRESPLTFGQGTRLEIK
CAR-J2 EC50 (PGLALA-CAR-J activation, L363 target cells) (human GPRC5D [1]): 59.4 ng/mL

B8: P1AE5717 (antibody, V domains shown)
VH: B1 VH with V2L, S75A
VL: B7 VL with R49K
CAR-J2 EC50 (PGLALA-CAR-J activation, L363 target cells) (human GPRC5D [1]): 79.9 ng/mL

B9: P1AE5714 (antibody, V domains shown)
VH: B1 VH with V2L, S75A
VL: B1 VL
CAR-J2 EC50 (PGLALA-CAR-J activation, L363 target cells) (human GPRC5D [1]): 5.5 ng/mL

B10: P1AE5728 (antibody, V domains shown)
VH: B1 VH with V2L, R61A, A66G, S75A
VL: B7 VL
CAR-J2 EC50 (PGLALA-CAR-J activation, L363 target cells) (human GPRC5D [1]): 5.6 ng/mL

B11: P1AE5716 (antibody, V domains shown)
VH: B1 VH with V2L, S75A
VL: B7 VL
CAR-J2 EC50 (PGLALA-CAR-J activation, L363 target cells) (human GPRC5D [1]): 3.3 ng/mL

B12: P1AE5726 (antibody, V domains shown)
VH: B1 VH with V2L, R61A, A66G, S75A
VL: B1 VL
CAR-J2 EC50 (PGLALA-CAR-J activation, L363 target cells) (human GPRC5D [1]): 37.8 ng/mL

B14: P1AE5715 (antibody, V domains shown)
VH: B1 VH with V2L, S75A
VL: B1 VL with R24K, A25S
CAR-J2 EC50 (PGLALA-CAR-J activation, L363 target cells) (human GPRC5D [1]): 3.6 ng/mL

B21: P1AE5722 (antibody, V domains shown)
VH: B1 VH with R61A, A66G
VL: B7 VL
CAR-J2 EC50 (PGLALA-CAR-J activation, L363 target cells) (human GPRC5D [1]): 4.6 ng/mL

B22: P1AE5721 (antibody, V domains shown)
VH: B1 VH with R61A, A66G
VL: B1 VL with R24K, A25S
CAR-J2 EC50 (PGLALA-CAR-J activation, L363 target cells) (human GPRC5D [1]): 25 ng/mL

B23: P1AE5706 (antibody, V domains shown)
VH: ELQLEQSGGGLVQPGGSLTLSCAASGFTFSKYAMAWVRQAPTKGLEWVASISTGGVNTYYRDSVKARFTISRDNAKNTQYLQMDSLRSEDTATYYCATHTGDYFDYWGQGVMVTVSS
VL: DIVLTQSPALAVSPGQRATISCRASQSVSISGINLMNWYQQKPGQQPKLLIYHASILASGIPTRFSGSGSGTDFTLTIDPVQADDIATYYCQQTRESPLTFGSGTNLEIK
CAR-J2 EC50 (PGLALA-CAR-J activation, L363 target cells) (human GPRC5D [1]): 3.9 ng/mL

B24: P1AE5719 (antibody, V domains shown)
VH: B1 VH with V2L, S75A
VL: B4 VL with K46Q
CAR-J2 EC50 (PGLALA-CAR-J activation, L363 target cells) (human GPRC5D [1]): 2.8 ng/mL

B25: P1AE5718 (antibody, V domains shown)
VH: B1 VH with V2L, S75A
VL: B4 VL
CAR-J2 EC50 (PGLALA-CAR-J activation, L363 target cells) (human GPRC5D [1]): 105 ng/mL

B26: ET150-5-TCB (bispecific antibody, human IgG1, lambda, L234A L235A)
light 1: QSVLTQPPSASGTPGQRVTISCSGSRSNVGGNYVFWYQQVPGATPKLLIYRSNQRPSGVPDRFAGSKSGSSASLAISGLRSEDEADYYCATWDDSLSGFVFGTGTKVTVLGQPKAAPSVTLFPPSSKKLQANKATLVCLISDFYPGAVTVAWKADSSPVKAGVETTTPSKQSNNKYAASSYLSLTPEQWKSHRSYSCQVTHEGSTVEKTVAPTECS
light 2: EVQLLESGGGLVQPGGSLRLSCAASGFTFSTYAMNWVRQAPGKGLEWVSRIRSKYNNYATYYADSVKGRFTISRDDSKNTLYLQMNSLRAEDTAVYYCVRHGNFGNSYVSWFAYWGQGTLVTVSSASVAAPSVFIFPPSDEQLKSGTASVVCLLNNFYPREAKVQWKVDNALQSGNSQESVTEQDSKDSTYSLSSTLTLSKADYEKHKVYACEVTHQGLSSPVTKSFNRGEC
heavy 1: EVQLVESGGGLVKPGGSLRLSCAASGFTFSDYYMSWIRQAPGKGLEWVSYISSSGSTIYYADSVKGRFTISRDNAKNSLYLQMNSLRAEDTAVYYCARGYGKAYDQWGQGTLVTVSSASTKGPSVFPLAPSSKSTSGGTAALGCLVEDYFPEPVTVSWNSGALTSGVHTFPAVLQSSGLYSLSSVVTVPSSSLGTQTYICNVNHKPSNTKVDEKVEPKSCDKTHTCPPCPAPEAAGGPSVFLFPPKPKDTLMISRTPEVTCVVVDVSHEDPEVKFNWYVDGVEVHNAKTKPREEQYNSTYRVVSVLTVLHQDWLNGKEYKCKVSNKALGAPIEKTISKAKGQPREPQVCTLPPSRDELTKNQVSLSCAVKGFYPSDIAVEWESNGQPENNYKTTPPVLDSDGSFFLVSKLTVDKSRWQQGNVFSCSVMHEALHNHYTQKSLSLSPGK
heavy 2: not shown
EC50 of T cell cytotoxicity (LDH release) on AMO-1 cells (human GPRC5D [2]): 0.0835 nM | EC50 of T cell cytotoxicity (LDH release) on L363 cells (human GPRC5D [2]): 0.768 nM | EC50 of T cell cytotoxicity (LDH release) on NCI-H929 cells (human GPRC5D [2]): 0.833 nM | EC50 of T cell cytotoxicity (LDH release) on RPMI-8226 cells (human GPRC5D [2]): 0.797 nM

B27: B72-TCB (bispecific antibody, human IgG1, kappa, L234A L235A)
heavy 1: not shown
light 1: B26 light 2 with L5V, S30N, S49A, D64A, T80S, R89K, A90T, V99A
heavy 2: QVQLVQSGAEVKKPGASVKVSCKASGYSFTGYTMNWVRQAPGQGLEWMGLINPYNSDTNYAQKLQGRVTMTTDTSTSTAYMELRSLRSDDTAVYYCARVALRVALDYWGQGTLVTVSSASTKGPSVFPLAPSSKSTSGGTAALGCLVEDYFPEPVTVSWNSGALTSGVHTFPAVLQSSGLYSLSSVVTVPSSSLGTQTYICNVNHKPSNTKVDEKVEPKSCDKTHTCPPCPAPEAAGGPSVFLFPPKPKDTLMISRTPEVTCVVVDVSHEDPEVKFNWYVDGVEVHNAKTKPREEQYNSTYRVVSVLTVLHQDWLNGKEYKCKVSNKALGAPIEKTISKAKGQPREPQVCTLPPSRDELTKNQVSLSCAVKGFYPSDIAVEWESNGQPENNYKTTPPVLDSDGSFFLVSKLTVDKSRWQQGNVFSCSVMHEALHNHYTQKSLSLSPGK
light 2: DIQMTQSPSSLSASVGDRVTITCKASQNVATHVGWYQQKPGKAPKRLIYSASYRYSGVPSRFSGSGSGTEFTLTISNLQPEDFATYYCQQYNRYPYTFGQGTKLEIKRTVAAPSVFIFPPSDRKLKSGTASVVCLLNNFYPREAKVQWKVDNALQSGNSQESVTEQDSKDSTYSLSSTLTLSKADYEKHKVYACEVTHQGLSSPVTKSFNRGEC
EC50 of in vitro killing, AMO-1 cells (human GPRC5D [3]): 0.109 nM | EC50 of in vitro killing, EJM cells (human GPRC5D [3]): 0.06 nM | EC50 of in vitro killing, L363 cells (human GPRC5D [3]): 0.058 nM | EC50 of in vitro killing, MOLP-2 cells (human GPRC5D [3]): 0.124 nM | EC50 of in vitro killing, NCI-H929 cells (human GPRC5D [3]): 0.058 nM | EC50 of in vitro killing, OPM-2 cells (human GPRC5D [3]): 0.171 nM | EC50 of in vitro killing, RPMI cells (human GPRC5D [3]): 0.193 nM

Results, then the binder that gave them:

CAR-J2 EC50 (PGLALA-CAR-J activation, L363 target cells) (human GPRC5D [1]): 3.5 ng/mL
B2: P1AE5730 (antibody, V domains shown)
VH: B1 VH with V2L, R61A, A66G, S75A
VL: B4 VL

CAR-J2 EC50 (PGLALA-CAR-J activation, L363 target cells) (human GPRC5D [1]): 10.9 ng/mL
B3: P1AE5725 (antibody, V domains shown)
VH: B1 VH with R61A, A66G
VL: B4 VL with K46Q

CAR-J2 EC50 (PGLALA-CAR-J activation, L363 target cells) (human GPRC5D [1]): 6.3 ng/mL
B13: P1AE5727 (antibody, V domains shown)
VH: B1 VH with V2L, R61A, A66G, S75A
VL: B1 VL with R24K, A25S

CAR-J2 EC50 (PGLALA-CAR-J activation, L363 target cells) (human GPRC5D [1]): 3.7 ng/mL
B15: P1AE5723 (antibody, V domains shown)
VH: B1 VH with R61A, A66G
VL: B7 VL with R49K

CAR-J2 EC50 (PGLALA-CAR-J activation, L363 target cells) (human GPRC5D [1]): 456 ng/mL
B16: P1AE5708 (antibody, V domains shown)
VH: B1 VH
VL: B1 VL with R24K, A25S

CAR-J2 EC50 (PGLALA-CAR-J activation, L363 target cells) (human GPRC5D [1]): 3.5 ng/mL
B17: P1AE5710 (antibody, V domains shown)
VH: B1 VH
VL: B7 VL with R49K

CAR-J2 EC50 (PGLALA-CAR-J activation, L363 target cells) (human GPRC5D [1]): 61.3 ng/mL
B18: P1AE5729 (antibody, V domains shown)
VH: B1 VH with V2L, R61A, A66G, S75A
VL: B7 VL with R49K

CAR-J2 EC50 (PGLALA-CAR-J activation, L363 target cells) (human GPRC5D [1]): 76.9 ng/mL
B19: P1AE5713 (antibody, V domains shown)
VH: B1 VH
VL: B4 VL with K46Q

CAR-J2 EC50 (PGLALA-CAR-J activation, L363 target cells) (human GPRC5D [1]): 6.3 ng/mL
B20: P1AE5720 (antibody, V domains shown)
VH: B1 VH with R61A, A66G
VL: B1 VL
